The results in this text go back to publication PMC4051425.

Where two headings read alike, the source gives them in different places.

The target of series [1] is T1, TRBP-RBD2 (second dsRBD of TRBP) (UniProt Q15633 159-227).
T1 sequence: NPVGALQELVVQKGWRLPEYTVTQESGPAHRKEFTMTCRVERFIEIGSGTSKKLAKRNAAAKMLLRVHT
The experiment in a line: EMSA. (In general: A gel shift assay detects complexes by their altered migration in electrophoresis.)

The target of series [2] is T1, TRBP-RBD2 (second dsRBD of TRBP). As to the kind of experiment: EMSA. This is another data set of the same source.

B1: 25-bp dsRNA (dsRNA)
RNA 1: GCUUGUCGGGAGCGCCACCCUCUGC
RNA 2: GCAGAGGGUGGCGCUCCCGACAAGC
For the molecule B1, the binding result in series [1] is listed as “binds”.

B2: 25-bp dsDNA (dsDNA)
DNA 1: GCTTGTCGGGAGCGCCACCCTCTGC
DNA 2: GCAGAGGGTGGCGCTCCCGACAAGC
Consider B2, for which the binding result in series [2] is on record as “no binding”.
